Where “and” joins values, the source holds several entries; their conditions need not be identical. Equal entries are not always repeated.
Biological target: endogenous ezrin of LLC-PK1 cells (pig (endogenous in LLC-PK1)) (UniProt F1SB42)
Experiment: SEC

Substance: endogenous ezrin of LLC-PK1 cells (from UniProt F1SB42 1-551) (natural protein)
- percent of the ezrin of the fraction that is oligomers: 15% and 28%
- percent of the total cellular ezrin found as oligomers in this fraction: 12.3% and 2.6%

Reference: article PMC2185562
